According to PMC4151996:

Biological target: AcHNL, hydroxynitrile lyase from Acidobacterium capsulatum ATCC 51196 (Acidobacterium capsulatum ATCC 51196)
Experiment: SEC

**Q.** How did the stoichiometry N turn out when “AcHNL, hydroxynitrile lyase from Acidobacterium capsulatum ATCC 51196 (enzyme)” was run?
**A.** The stoichiometry N was 4.
